Data: patent US20240287172A1 (SCIRHOM, published 2024)

T1: hiR2-FL-R582A-T7 (human, UniProt Q6PJF5 1-856)
T1 sequence: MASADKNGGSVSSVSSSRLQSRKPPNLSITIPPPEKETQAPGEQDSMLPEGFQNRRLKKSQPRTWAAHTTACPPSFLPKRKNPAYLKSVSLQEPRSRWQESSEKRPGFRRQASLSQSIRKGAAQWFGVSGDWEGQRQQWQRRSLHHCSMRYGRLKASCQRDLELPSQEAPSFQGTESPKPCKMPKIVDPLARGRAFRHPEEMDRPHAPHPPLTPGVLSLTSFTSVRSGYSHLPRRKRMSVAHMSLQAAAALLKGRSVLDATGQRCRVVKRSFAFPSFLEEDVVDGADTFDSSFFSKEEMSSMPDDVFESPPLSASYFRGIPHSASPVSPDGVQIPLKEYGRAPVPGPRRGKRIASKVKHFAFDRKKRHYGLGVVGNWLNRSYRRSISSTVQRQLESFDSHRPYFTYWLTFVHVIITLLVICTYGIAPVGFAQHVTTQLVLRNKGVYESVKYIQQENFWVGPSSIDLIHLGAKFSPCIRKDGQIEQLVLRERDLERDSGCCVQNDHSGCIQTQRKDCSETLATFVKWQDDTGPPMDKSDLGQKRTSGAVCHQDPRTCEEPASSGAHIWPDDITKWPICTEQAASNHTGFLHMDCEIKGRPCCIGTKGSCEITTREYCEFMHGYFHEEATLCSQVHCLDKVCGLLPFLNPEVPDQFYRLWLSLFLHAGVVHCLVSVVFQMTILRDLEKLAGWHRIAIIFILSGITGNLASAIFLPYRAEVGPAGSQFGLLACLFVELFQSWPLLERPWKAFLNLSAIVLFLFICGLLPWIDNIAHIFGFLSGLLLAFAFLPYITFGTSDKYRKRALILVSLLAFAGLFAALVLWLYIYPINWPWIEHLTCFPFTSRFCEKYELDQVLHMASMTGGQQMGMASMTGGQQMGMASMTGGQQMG

T2: hiR2-FL-Q510A-T7 (human, UniProt Q6PJF5 1-856)
T2 construct: reduced surface expression reported
T2 sequence: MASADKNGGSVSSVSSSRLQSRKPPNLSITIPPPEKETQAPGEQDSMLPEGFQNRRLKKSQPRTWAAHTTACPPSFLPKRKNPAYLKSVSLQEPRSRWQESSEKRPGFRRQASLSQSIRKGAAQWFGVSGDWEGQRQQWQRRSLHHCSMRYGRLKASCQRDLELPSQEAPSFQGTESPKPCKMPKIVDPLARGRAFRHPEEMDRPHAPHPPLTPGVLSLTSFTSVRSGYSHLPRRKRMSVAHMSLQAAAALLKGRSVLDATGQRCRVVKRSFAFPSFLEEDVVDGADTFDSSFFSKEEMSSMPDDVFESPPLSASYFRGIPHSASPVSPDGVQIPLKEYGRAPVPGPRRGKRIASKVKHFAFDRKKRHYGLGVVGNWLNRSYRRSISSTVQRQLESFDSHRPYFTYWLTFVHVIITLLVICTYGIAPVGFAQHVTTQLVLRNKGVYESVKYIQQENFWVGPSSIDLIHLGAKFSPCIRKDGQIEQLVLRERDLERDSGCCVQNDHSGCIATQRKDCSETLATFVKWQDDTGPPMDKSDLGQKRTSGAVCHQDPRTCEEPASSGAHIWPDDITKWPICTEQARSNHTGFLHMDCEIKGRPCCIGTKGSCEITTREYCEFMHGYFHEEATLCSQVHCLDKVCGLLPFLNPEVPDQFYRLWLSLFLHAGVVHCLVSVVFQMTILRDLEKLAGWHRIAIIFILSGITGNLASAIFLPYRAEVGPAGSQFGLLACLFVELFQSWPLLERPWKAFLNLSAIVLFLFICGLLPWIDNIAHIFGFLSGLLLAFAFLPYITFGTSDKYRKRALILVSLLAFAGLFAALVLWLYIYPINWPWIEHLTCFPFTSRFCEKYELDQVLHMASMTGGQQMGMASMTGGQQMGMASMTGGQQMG

B1: antibody 3 (antibody, V domains shown)
VH: QVTLKESGPGILQPSQTLSLTCSFSGFSLTTFAMGIGWVRQPSGKGLEWLAHIWWDGEKYNNPVLKSRLTISKDTSKNQVFLRIANVDTPDTATYYCARISSIYYIIDNWGQGTSVTVSS
VL: DIVLTQSPATLSVTPGHSVSLSCRASQSISNNLHWYQKKSHESPRLLIKYVSQSISGIPSRFSGSGSGTDFTLSINSVETEDFGMYFCQQSYNWPLTFGAGTKLELK
notes: mouse IgG, kappa light chain; also called clone #3; purified antibody 3
B2: antibody 50 (antibody, V domains shown)
VH: QVQLQQSGAELVRPGASVKVSCKASGYAFSNYLIEWVKQRPGQGLEWIGVINPGSGFTKYNEKFKGKATLTADKSSSTAYMQLSSLTSEDSAVYFCARGLYRAMDYWGQGTSVTVSS
VL: DIQMTQSPASQSASLGESVTITCLASQTIGTWLAWYQQKPGKSPQLLIYAAASLADGVPSRFSGGGSGTKFSFKISSLQAEDFVNYYCQQIYSTPYTFGGGTKLEIK
notes: mouse IgG, kappa light chain; also called clone #50; purified antibody 50

Columns and labels:
hiR2-FL-R582A-T7 = molecular target: T1, hiR2-FL-R582A-T7; experiment: FACS on MEF-DKO cells expressing the variant, 3 µg/ml antibody
Summary of the method: (§1)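 Primary stain: antibody 3 μg/ml, 1 h on ice; controls buffer alone. Secondary: PE anti-mouse IgG F(ab′)2 1:100, 1 h on ice, light-protected. Washes at 4° C; read by flow cytometry.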

hiR2-FL-Q510A-T7 = molecular target: T2, hiR2-FL-Q510A-T7; experiment: as above
Summary of the method: as §1

Binder | loss of binding vs wild type (hiR2-FL-R582A-T7) [%] | loss of binding vs wild type (hiR2-FL-Q510A-T7) [%]
B1 | ≥ 30 | –
B2 | – | ≥ 30
